Experimental findings from article PMC7904663 (Nature chemical biology, 2021) are described below.

The target in assay [1] is T1, NicA2 (Pseudomonas putida, UniProt F8G0P2).
T1 sequence (F8G0P2 1-482): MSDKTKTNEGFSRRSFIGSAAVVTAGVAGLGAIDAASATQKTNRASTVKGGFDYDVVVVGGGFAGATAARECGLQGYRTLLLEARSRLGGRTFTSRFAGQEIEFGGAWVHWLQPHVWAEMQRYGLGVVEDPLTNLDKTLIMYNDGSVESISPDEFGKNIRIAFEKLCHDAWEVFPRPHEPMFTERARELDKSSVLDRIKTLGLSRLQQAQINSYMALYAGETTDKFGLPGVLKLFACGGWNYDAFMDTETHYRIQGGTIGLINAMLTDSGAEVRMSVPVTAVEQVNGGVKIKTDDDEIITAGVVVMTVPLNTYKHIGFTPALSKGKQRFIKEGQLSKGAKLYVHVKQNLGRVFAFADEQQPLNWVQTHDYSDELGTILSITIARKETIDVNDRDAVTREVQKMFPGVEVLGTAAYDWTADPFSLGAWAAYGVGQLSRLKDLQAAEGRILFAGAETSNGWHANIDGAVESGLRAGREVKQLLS
Nature of the assay: biochemical.

Assay [2] deals with Nicotine oxidoreductase (NicA2) (Pseudomonas putida S16) (UniProt F8G0P2). In words: stopped-flow absorbance spectrophotometry.

In turn, `c1cncc(C2=NCCC2)c1` [myosmine] displayed a dissociation constant Kd in assay [1] of 268 ± 3 µM.
As for “CycN (cytochrome c of Pseudomonas putida S16) (natural protein)”, in assay [2], the bimolecular rate constant (kon), first phase, N-methylmyosmine-bound NicA2 is 140000 M⁻¹ s⁻¹; the bimolecular rate constant (kon), second phase, N-methylmyosmine-bound NicA2 is 77000 M⁻¹ s⁻¹; the kon, first phase (CycNox with NicA2-Flred) was 1e+06 M⁻¹ s⁻¹.
